Experimental data reported in EP4711384A1 (WIO Bioscience Co., Ltd., dated 2026).
“And” between values parts separate entries of the source, which are not always exact repeats. Identical values can stand only once.

How the values were obtained:
[1] = molecular target: T1, human IL-18R1 and IL-18RAP on IL-18 Reporter HEK 293 Cells (human, UniProt Q13478 19-541; O95256 20-599); experiment: cell-based or functional assay
T1 sequence (looked up) 1: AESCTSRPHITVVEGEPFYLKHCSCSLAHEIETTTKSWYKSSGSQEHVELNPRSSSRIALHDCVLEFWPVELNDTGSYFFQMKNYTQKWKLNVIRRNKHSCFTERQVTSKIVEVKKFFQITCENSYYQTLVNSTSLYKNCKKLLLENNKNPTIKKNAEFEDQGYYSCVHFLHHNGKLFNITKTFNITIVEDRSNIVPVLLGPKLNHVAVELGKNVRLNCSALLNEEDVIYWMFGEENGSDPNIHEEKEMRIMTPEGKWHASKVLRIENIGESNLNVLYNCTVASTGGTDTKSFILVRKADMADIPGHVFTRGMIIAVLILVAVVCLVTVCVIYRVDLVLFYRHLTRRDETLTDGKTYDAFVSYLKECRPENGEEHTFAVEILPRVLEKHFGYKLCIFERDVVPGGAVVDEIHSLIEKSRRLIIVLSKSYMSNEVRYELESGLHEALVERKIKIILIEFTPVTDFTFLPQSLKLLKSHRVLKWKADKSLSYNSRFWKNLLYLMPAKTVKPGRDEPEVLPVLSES
T1 sequence (looked up) 2: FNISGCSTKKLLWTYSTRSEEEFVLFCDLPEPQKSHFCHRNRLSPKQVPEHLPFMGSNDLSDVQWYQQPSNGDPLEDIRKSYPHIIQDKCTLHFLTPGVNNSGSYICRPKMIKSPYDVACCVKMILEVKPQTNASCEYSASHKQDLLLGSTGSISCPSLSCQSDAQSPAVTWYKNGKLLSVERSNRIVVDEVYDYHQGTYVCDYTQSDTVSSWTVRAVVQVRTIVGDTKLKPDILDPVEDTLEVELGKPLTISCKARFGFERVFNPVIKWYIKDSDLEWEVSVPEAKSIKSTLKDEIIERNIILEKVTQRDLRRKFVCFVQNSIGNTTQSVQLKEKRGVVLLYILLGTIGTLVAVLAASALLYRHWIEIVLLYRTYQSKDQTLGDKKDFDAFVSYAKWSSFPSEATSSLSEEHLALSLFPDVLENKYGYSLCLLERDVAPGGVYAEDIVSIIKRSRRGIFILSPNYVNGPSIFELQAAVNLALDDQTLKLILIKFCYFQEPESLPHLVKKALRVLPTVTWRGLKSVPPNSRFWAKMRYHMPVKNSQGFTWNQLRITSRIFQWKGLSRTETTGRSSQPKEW

[2] = molecular target: T1, human IL-18R1 and IL-18RAP on IL-18 …; experiment: cell-based or functional assay; remark: listed apart in the source
[3] = molecular target: T2, human IL-18R1 ECD-His (human) (UniProt Q13478); experiment: sandwich ELISA, IL-18RAP ECD-hFc detection
T2 sequence: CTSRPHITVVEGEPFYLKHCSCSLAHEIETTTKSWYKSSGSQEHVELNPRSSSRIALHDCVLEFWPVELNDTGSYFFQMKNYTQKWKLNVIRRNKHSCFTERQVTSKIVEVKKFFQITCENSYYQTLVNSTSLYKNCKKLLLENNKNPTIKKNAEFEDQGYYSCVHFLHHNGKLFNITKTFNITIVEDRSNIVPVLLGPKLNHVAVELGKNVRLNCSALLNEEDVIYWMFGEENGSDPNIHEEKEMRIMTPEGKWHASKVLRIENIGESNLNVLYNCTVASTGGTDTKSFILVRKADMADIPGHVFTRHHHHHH

- SEAP reporter OD, supernatant 5X [1]: 2.13
- SEAP reporter OD, supernatant 25X [1]: 1.92
- EC50 [2]: 1.87 ng/mL
- ELISA OD [3]: 2.14 and 2.26
B1: Wio-02-01 (R1-A12-GGGGS-Rap-A10) (bispecific antibody)
chain: QVQLQESGGGPVQAGGSLRLSCSASTTAYDNACMGWFRQAPGKEREGVASIHLRDRTYYADSVKGRFTLSRDGASKTLYLQMNSLKPEDSGTYYCASSNICNGLNLQGNTYWGQGTQVTVSSGGGGSQVQLQESGGGLVQAGGSLKLSCAASGYTYGPYCMGWFRQFPGKEREGVAAVGGDGRTWYGNSVKGRFTISQDNAKKTLYLQINALKPEDTAMYYCAADFDRTVCSDDIYDYTYRGQGTQVTVSS
